Measurements as given in patent publication US5888763A, “Peptides specific for the first Crk-SH3 domain” (The Rockefeller University, priority 1994, dated 1999).

Legend:
Assay in all cases: SH3 blot assay with 35S-labeled gst-C3G CB-region
Assay type in all cases: binding
[1] = test system: Grb2, the individual Grb2SH3 domains
Method: (§1) SH3 Blot Assay. […] of gst or equimolar amounts of SH3-fusion proteins were subjected to SDS-PAGE, electroblotted and incubated with […] (70,000 dpm/ml) ^35 S-labeled gst-C3G CB region as described (Feller et al., supra). Filters were exposed over night.

CrkSH3(N) domain = target: T1, CrkSH3(N) domain (Mus musculus, UniProt Q64010)
T1 construct: probed with 1-2 μg/ml ^35 S-labeled gst-fusion CrkSH3(1) domain; made in house; host or cells: bacteria
Method: as §1

PI3Kp85-a-SH3 domain = target: T2, PI3Kp85-a-SH3 domain (Homo sapiens, UniProt P27986)
T2 construct: The PI3Kp85-a-SH3 domain was a gift of L. Cantley
Method: as §1

T1 sequence (Q64010 132-192 limits assumed): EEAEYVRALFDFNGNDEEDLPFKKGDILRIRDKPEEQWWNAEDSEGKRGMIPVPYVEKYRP
T2 sequence (P27986 3-79 limits assumed): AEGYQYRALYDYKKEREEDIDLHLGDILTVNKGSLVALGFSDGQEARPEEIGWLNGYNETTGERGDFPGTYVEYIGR

binding to Grb2 and the individual Grb2SH3 domains [1]: only bound weakly
binding to gst-fusion constructs containing the CrkSH3(N) domain (CrkSH3(N) domain): bound strongly
binding to PI3Kp85-a-SH3 domain (PI3Kp85-a-SH3 domain): only bound weakly
B1: C3G CB-region: C3G region containing all four CB-sequences expressed as 35S-labeled gst-fusion protein (protein)
chain: NSPPPALPPKKRQSAPSPTRVAVVAPMSRATSGSSLPVGINRQDFDVDCYAQRRLSGGSHSYGGESPRLSPCSSIGKLSKSDEQLSSLDRDSGQCSRNTSCETLDHYDPDYEFLQQDLSNADQIPQQTAWNLSPLPESLGESGSPFLGPPFQLPLGGHPQPDGPLAPGQQTDTPPALPKKKRRSAASQTADGSGCRVSYERHPSQYDNISGEDLQSTAPIPSVPYAPFAAILPFQHGGSSAPVEFVGDFTAPESTGDPEKPPPLPEKKQKHMLAYMQLLEDYSEPQPSMFYQTPQNEHIYQQKMKLLMEVYGFSDSFSGVDSVQELAPPPALPPAQRQLEPPAGKDGHPRDPSAVSVVPGKDSRDGSERAPKDP
